From paper PMC2836930 (Biomacromolecules, 2008)
Several values for one entry are separate records, joined by “and”; a condition that tells them apart may be missing. Equal entries are not always repeated. Where two headings read alike, the source gives them in different places.

Experiments:
AUC [1] = molecular target: the molecule itself; assay: AUC
AUC [2] = molecular target: the molecule itself; assay: AUC; remark: listed apart in the source

B1: γ_(52–88)KI (peptide)
peptide: Ac-IDFISTYITKIDKKIQSIEDIIHQIENKISEIKQLIK-NH2
AUC [1]
  stoichiometry N: ~2 and ~4
AUC [2]
  Kd: 4.95 µM
  stoichiometry N: 2 and 4
